Measurements taken from patent publication US20080166345A1, “MEDICAMENTS COMPRISING GENE RECOMBINANT ANTIBODY AGAINST GANGLIOSIDE GD3” (KYOWA HAKKO KOGYO CO., LTD., priority 2001, published 2008).

How the values were obtained:
[1] = tested on: GD3 expressing B16 cell B16•29-10; assay: Antitumor effects of KM871 with human IL-2, mouse syngeneic graft model; type: in vivo, C57 BL/6 mouse; conditions: FIG. 4; KM871 50 μg/day, IL-2 10 μg/day, days 6-14, tail vein
Method: Six days after the tumor inoculation, the tumor diameter was measured using slide calipers to calculate the tumor volume by the following equation, and individuals having the value within the range of 10 to 80 mm^3 were selected.
Tumor volume=(width)^2×length×0.5
They were divided into groups in such a manner that the average tumor volume became uniform, and then the following administration groups of A to D were arranged to carry out continuous administration of the following agents from the tail vein once a day for 8 days (from the 6th day to 14th day).
IL-2 (Human Recombinant IL-2, Manufactured by Peprotech) Alone Group:
The test was carried out using 5 animals for each group. Each agent was prepared to 200 μl per animal by diluting with a citrate buffer (an aqueous solution of 10 mM citric acid and 150 n sodium chloride, adjusted to pH 6 with sodium hydroxide). From the 6th day after the inoculation, the tumor volume was periodically measured, and the antitumor effects were judged by comparing the mean value of specific volume V/V0 in each group.

B16-29-10 = assay: Fluorescent antibody technique (flow cytometer), GD3 synthase transfectant; type: binding, mouse; conditions: antibody 5 μg/ml; FIG. 3
Method: (§1) Each of 1×10^6 cells of the GD3 synthase gene transfectants B16-8-3 and B16-29-10 obtained in b. of the item (2) of Example 1 and the parent cell line B16-F10 cell were suspended in PBS, put into a microtube (manufactured by Treff) and centrifuged (2,000 rpm for 2 minutes) for washing the cells, 50 μl of the anti-GD3 human chimeric antibody KM871 (a solution prepared by adjusting to 5 μg/ml with 1% BSA-PBS, negative control was 1% BSA-PBS alone) was added thereto, followed by stirring, and the reaction was carried out at 4° C. for 1 hour. After the reaction and subsequent washing with PBS by centrifugation three times, 100 μl of biotin-labeled goat anti-human IgG (H+L) solution (manufactured by VECTOR, used by diluting 400 folds with 1% BSA-PBS) was added thereto, followed by stirring, and the reaction was carried out at 4° C. for 1 hour. After washing with PBS by centrifugation three times, 100 μl of a streptoavidin-labeled Cy5 pigment solution (Streptoavidin-RED670 manufactured by GIBCO, used by diluting 100 folds with 1% BSA-PBS) was added thereto, followed by stirring, and the reaction was carried out at 4° C. for 30 minutes. After the reaction and subsequent washing with PBS by centrifugation three times, the cells were again suspended in PBS to carry out the analysis using a flow cytometer EPICS Elite (manufactured by COULTER).

B16-8-3 = assay: as above; type: binding, mouse; conditions: antibody 5 μg/ml; FIG. 3
Method: as §1

B16-F10 cell = assay: Fluorescent antibody technique (flow cytometer), parent cell line; type: binding, mouse; conditions: antibody 5 μg/ml; FIG. 3
Method: as §1

[2] = Reactivity of purified antibodies with GD3 (ELISA); type: binding; conditions: antibody 10 μg/ml, 20 pmol/well; FIG. 22
Method: (§2) Each ganglioside (2 nmol) was dissolved in […] of ethanol solution containing 10 μg of dipalmitoylphosphatidylcholine (manufactured by SIGMA) and 5 μg of cholesterol (manufactured by SIGMA). In each well of a 96 well plate for ELISA (manufactured by Greiner), 20 μl of the solution (becomes 20 pmol/well) or 20 μl of the solution diluted with ethanol was respectively dispensed, followed by air-drying, and then PBS containing 1% BSA (hereinafter referred to as “1% BSA-PBS”) was added in 100 μl/well and allowed to react at room temperature for 1 hour to thereby block remaining active groups. After discarding 1% BSA-PBS, culture supernatants of transformants or diluted solutions of humanized antibodies were added in 50 μl/well and allowed to react at room temperature for 1 hour. […] After the reaction and subsequent washing with Tween-PBS, an ABTS substrate solution (a solution prepared by dissolving 0.55 g of 2,2′-azinobis(3-ethylbenzothiazoline-6-sulfonic acid) in 1 L of 0.1 M citrate buffer (pH 4.2) and adding 1 μl/ml hydrogen peroxide just before the use) was added in 50 μl/well for color development and the absorbance at 415 nm (hereinafter referred to as “OD415”) was measured.
(§3) Reactivity of purified anti-GD3 CDR-grafted antibodies KM8869, KM8870 and KM8871 with GD3 (manufactured by DIA-IATRON) was measured by the ELISA shown in the item 2 of Reference Example. […]

[3] = Reactivity of purified antibodies with various gangliosides (ELISA); type: binding; conditions: antibody 10 μg/ml, 20 pmol/well; FIG. 22
Method: as §2, §3

[4] = human peripheral blood monocyte as effector; cited from earlier work
[5] = human serum as complement source; cited from earlier work

binding to ganglioside [2]: bound strongly
binding to ganglioside [3]: did not bind
B1: KM871: anti-GD3 human chimeric antibody; VH SEQ ID NO:49, VL SEQ ID NO:50, human IgG1 and κ C regions (antibody, listed as Mus musculus, V domains shown)
VH: EVTLVESGGDFVKPGGSLKVSCAASGFAFSHYAMSWVRQTPAKRLEWVAYISSGGSGTYYSDSVKGRFTISRDNAKNTLYLQMRSLRSEDSAMYFCTRVKLGTYYFDSWGQGTTLTVSS
VL: DIQMTQTASSLPASLGDRVTISCSASQDISNYLNWYQQKPDGTVKLLIFYSSNLHSGVPSRFSGGGSGTDYSLTISNLEPEDIATYFCHQYSKLPWTFGGGTKLEIKR
modifications: human IgG1 and kappa constant regions
tumor growth inhibitory effects (mean V/V0) [1]: antitumor effects were not found
reactivity with cells (B16-29-10): reacted
reactivity with cells (B16-8-3): reacted
reactivity with cells (B16-F10 cell): did not show reactivity
ADCC activity in comparison with the original mouse-derived antibody [4]: increased
CDC activity in comparison with the original mouse-derived antibody [5]: increased
